Test [1] has as its target SARS-CoV-2 (antigen of the ELISA of Example 17; protein not specified) (SARS-CoV-2). The test can be described thus: ELISA by the method of Example 15, SARS-CoV-2 antigen. In general terms: ELISA stands for enzyme-linked immunosorbent assay.
The target of test [2] is RSV-F (amino acids 1-529), (Extracellular Domain) protein (His tag), ABIN2006856 (respiratory syncytial virus) (UniProt P03420). The test can be described thus: ELISA, RSV F coated, anti-human IgG-HRP.

pEC50: −log10 of the molar value.

Usually pEC50 stands for −log10 of the EC50, conventionally taken in molar units. A low value points to a high EC50. “SEQ ID NO: 139, b1b2-b1b2-Fc (NRP1, E319A, double b1b2) (Fc fusion)”: the pEC50 in test [1] was 7.09. For “SEQ ID NO: 128, b1b2-Fc (NRP1, K358E, K373E, R513E, K514E, K516E) (Fc fusion)”, the pEC50 in test [2] is 7.37. In test [2], “SEQ ID NO: 204, b1b2-Fc-ACE2 (NRP1, K358E, K373E, R513E, K514E, K516E) (Fc fusion)” had a pEC50 of 7.04.
